From patent US20040082509 come the findings set out here.

For the data set, the system named is T1, L-JBD20 peptide (20 amino acid minimal JNK-inhibitory sequence of JIP-IB1).
T1 sequence: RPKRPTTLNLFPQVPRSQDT

Take caK: the “caK kinase activity (substrate caseine) at the tested peptide concentration” value is 500 µM of the JBD20 peptides did not interfere with the activity of 6 particular kinases: ERK2, p38, pKC, p34, caK and pKA.
In the case of p34, the “p34 kinase activity (substrate histone) at the tested peptide concentration” value is 500 µM of the JBD20 peptides did not interfere with the activity of 6 particular kinases: ERK2, p38, pKC, p34, caK and pKA.
Regarding p38, the “p38 kinase activity (substrate ATF2) at the tested peptide concentration” value was 500 µM of the JBD20 peptides did not interfere with the activity of 6 particular kinases: ERK2, p38, pKC, p34, caK and pKA.
For pKA, the “pKA kinase activity (substrate histone) at the tested peptide concentration” value is 500 µM of the JBD20 peptides did not interfere with the activity of 6 particular kinases: ERK2, p38, pKC, p34, caK and pKA.
As to pKC, the “pKC kinase activity (substrate histone) at the tested peptide concentration” value was 500 µM of the JBD20 peptides did not interfere with the activity of 6 particular kinases: ERK2, p38, pKC, p34, caK and pKA.
